Measurements reported in the supplement of paper PMC12764529.
± gives the half width of the 95% confidence interval.

Key:
[1] = folding stability dG unfold from chymotrypsin proteolysis; higher = more stable
Protocol: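 Folding stability of de novo designed mini-proteins (<80 aa, no Cys; designed by TrROS, TrMRF, ProteinMPNN and the joint model) was measured by cDNA display proteolysis with trypsin and chymotrypsin. Each protease was used at 11 concentrations in a threefold dilution series plus a no-protease condition. K50 was inferred by Bayesian fitting of sequencing counts, and dG unfold was derived against a sequence-predicted unfolded-state K50 (Tsuboyama et al. method). Sequences shown include variable-length N-terminal GS-type padding (SAGGSAGG...) inside a display construct carrying a PA tag. Rows were kept only if the AF2 dimer inter-PAE was >15, to exclude likely homo-oligomers.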

[2] = folding stability dG unfold (combined trypsin and chymotrypsin); higher = more stable
Procedure, shortened: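 Digests were run with trypsin and chymotrypsin at 11 concentrations in threefold dilutions, plus a no-protease condition, on designed mini-proteins in a PA-tagged cDNA display construct. The mini-proteins were under 80 residues, had no cysteine, and were kept only when AlphaFold2 dimer inter-PAE was above 15. After sequencing, Bayesian fitting of the counts gave K50, from which unfolding free energy was derived against a sequence-predicted unfolded-state K50 and a shared folded-state K50, per protease or combined.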

Row | Sequence | folding stability dG unfold [1] [kcal/mol] | folding stability dG unfold [2] [kcal/mol]
1 | SAGGSAGGSPPPVPLSTLAVEPDPATGGKFTVLLAYPDGSTRELTSEEEAAALPNFDLERRLASAGGSAGGS [r20_192_JUSTAS] | 0.443 ± 0.2 | -0.0474 ± 0.21
2 | SAGGSAGGSQKPTIEKEGGRYYIRNPDNGKSFPINIEREDNEWKFEFGDGEITIPGEFEIQRRSAGGSAGGS [r12_683_TrROS] | -0.308 ± 0.14 | < -1
3 | SAGGSAGGSSEVIEKLLELNPDVEVVSVTPTPNGVTVTVATKEGGEETVSSAELEKLGVKIRLSAGGSAGGS [r12_3_JUSTAS] | 0.282 ± 0.1 | 0.1 ± 0.28
4 | SAGGSAGGSTADALKDLPPGAKIEVEPHPIPNEDGWVYRQHYIKIEDPNKTVELPVIIPIPLPSAGGSAGGS [r12_892_TrROS] | -0.0369 ± 0.39 | -0.0244 ± 0.37
5 | SAGGSAGGTREIELPGMKISVQKDPNQGKKKIEVEFPNGEEFTMDPGKPPDDLPPPFRRALKEISAGGSAGG [r6_749_TrROS] | -0.176 ± 0.31 | < -1
6 | SAGGSAGGWIKLDGKEVYIVIPDGNPEQIAKELKEQFPNGNIKPHPGQNAEEAAKKNKRVIWIPSAGGSAGG [r6_680_TrROS] | 0.771 ± 0.16 | 0.284 ± 0.37
7 | SAGGSAGMPRLVEIEVPLPPDAKDPEIKEKIIKTPEGYEYKTIKETSDPSPSSLRKIIMEKKPLKKSAGGSA [r15_852_JUSTAS] | -0.197 ± 0.99 | < -1
8 | SAGGSAGMRMQIQIPNDEIPPEKIEDALQEYGWNPTDVYPPDNGVSVTFEMDPGDMNKLMEAIKKLSAGGSA [r15_161_TrROS] | 0.843 ± 0.29 | 0.107 ± 0.35
9 | SAGGSAGMVVEPREVVIKLKPPNGPETTLEVELVEVEPDSLVLRNGDTPIVLPPDAEDVEILEVTGSAGGSA [r15_510_JUSTAS] | 0.401 ± 0.088 | 0.0501 ± 0.22
10 | SAGGSAGPMPSTVTTLATAPLPDGTLVVTTLERTPDSVTRTTTTYKPADGSPLGTASTTYPAPAALSAGGSA [r15_716_JUSTAS] | 0.808 ± 0.15 | -0.0279 ± 0.14
11 | SAGGSAGSVPSIVIESYDPEKGIVTVSYPATGATYTVEVPPGSTSLTVTVTDADGTPRTFTFPLPGSAGGSA [r2_132_JUSTAS] | 5.31 ± 0.1 | 5.36 ± 0.12
12 | SAGGSAHPVQFPNGQEFPIRNPKNGKDFKIRMEQEDGPMRAEIEYPGGGKKRRIDGPMSLEEALKQSAGGSA [r15_234_TrROS] | 0.509 ± 0.12 | -0.0891 ± 0.24
13 | SAGGSAITLEDIRNMPIEEIAKEMQDHFPNGQKQPIEFEYPDGRKLRIKAEYPPNGEPKIDIEPVDSAGGSA [r15_857_TrROS] | 0.139 ± 0.14 | < -1
14 | SAGGSAKLRVAEADFVPGALLEAIEELEKAPAGAEVEVRPGDPLEPKERPVRFVVNEKGELLEVVGSAGGSA [r15_228_TrMRF] | -0.619 ± 0.32 | < -1
15 | SAGGSAKPGEKLKIRMWNPDGETHEFDVKIPPGVRIRMPDNGQEQTFPPGDEIPFPPNMPIQVEKVSAGGSA [r15_152_TrROS] | 0.309 ± 0.086 | -0.121 ± 0.29
16 | SAGGSAKRVAFIGGGPEIEKVIKEAEKNGFEAVPFDGTPDEFLDALKKNFPDVKQIVFPDGKVLDASAGGSA [r15_712_TrMRF] | 0.192 ± 0.13 | -0.134 ± 0.13
17 | SAGGSALTPAVAERLRELFPDGDLGLKAVKPGEVVVFPNGARNFNTEDAERVVVVLPDGEPLVLDVSAGGSA [r2_166_TrMRF] | 0.117 ± 0.14 | -0.241 ± 0.23
18 | SAGGSAMKAKVVDTSLKESKTKDDSIIVTVTVKYPDGSVTPIVYPVSSSGGISEEEVEKAIKELLESAGGSA [r15_233_JUSTAS] | -0.138 ± 0.057 | -0.661 ± 0.14
19 | SAGGSAMKTAEVVLDVPEEELEAARAAGEGLSAEVRARMEALAAEVRAAGYDEVVLRLRPSSVPLPSAGGSA [r15_304_JUSTAS] | -0.0294 ± 0.24 | < -1
20 | SAGGSAMPRSSVSIVSVERAPDGTVTIPTKTTLTTPDGTVTTEESTVTLEVPPGRELSEEEIKKLLSAGGSA [r15_836_JUSTAS] | 0.983 ± 0.017 | 0.53 ± 0.11
21 | SAGGSAMTEEEFETEFSDPNNSLSTKVKTTRYLEGDTPVVKTTYTTEDPNTGSTYTTEKVTVIPKKSAGGSA [r15_960_JUSTAS] | -0.218 ± 0.18 | -0.891 ± 0.29

Row | Sequence | folding stability dG unfold [1] [kcal/mol] | folding stability dG unfold [2] [kcal/mol]
22 | SAGGSAMVVPVASEEEARAVAEEAAARGEPVVIAFPGGRALVVETAAAPTPEPVLRVEEREVPPLLSAGGSA [r15_761_JUSTAS] | 0.744 ± 0.0083 | 0.216 ± 0.034
23 | SAGGSASTREVGDKTLTVTPIKLPNGTNLVLLRTFDPATGKVPVLAFPPEEGNPLGESVLPASELLSAGGSA [r15_671_JUSTAS] | -0.654 ± 0.14 | < -1
24 | SAGGSASVSVTELSPEERAALEAAGVEVPDDRPRVVETRTVTPAGGAVVTVRVLPEPPLSPEELAASAGGSA [r15_322_JUSTAS] | 0.311 ± 0.013 | -0.127 ± 0.066
25 | SAGGSASVSYDPTPGPTRRTTTLLETEEVGPNLKRVKTKVTLFPSDGVPTTSTVTELDLVPPPELPSAGGSA [r15_1035_JUSTAS] | 0.527 ± 0.057 | 0.128 ± 0.11
26 | SAGGSETLELTIEIPGLGQPVSARSTSFDPEKGLWTAEMKSPVPGLRRTLTYDPVTGTVSSTTTLLSAGGSA [r2_147_JUSTAS] | 0.341 ± 0.13 | 0.108 ± 0.13
27 | SAGGSGDSMLVPVSESTSSYPPSGIVRSTKTILDPKKGGIITETTTTTLTPDGNPLSTTPSTTVKESAGGSA [r2_253_JUSTAS] | 0.344 ± 0.032 | -0.244 ± 0.23
28 | SAGGSGMWTPKQVKLLAEPGKSKTITIPGPVSEEEINALLNAGEPVIITLPDGTVLKAEKNTITLESAGGSA [r2_33_JUSTAS] | 0.138 ± 0.084 | -0.371 ± 0.15
29 | SAGGSGSRIVVETITEYEVFETPTGKKKTKVFKTKKIVTETVPMSPADVAAYEAALAEGLGPGALASAGGSA [r2_327_JUSTAS] | 0.714 ± 0.16 | -0.234 ± 0.17
30 | SAGGSIPAEEIADKLRKEPGIPEDDVEVNVERRPGQVTIDVKMDDPDHPQHRRMKKRAQDALQKLLSAGGSA [r2_3_TrROS] | 0.186 ± 0.31 | -0.133 ± 0.3
31 | SAGGSMKDIPAEEIAKLFAAKLGYPILDAKVEKNPVKPVYKLYIVVEEKNPGKKFPREITIPSELLSAGGSA [r2_156_TrMRF] | 0.196 ± 0.25 | -0.0499 ± 0.22
32 | SAGGSMLVTVKFKTLPDGTVDHNPKLLAKVDGPEPDPADPATVRLPVDPAVVAQWPEEVAEEMEILASAGGS [r16_328_JUSTAS] | 0.155 ± 0.086 | -0.159 ± 0.074
33 | SAGGSMPPVVEPATLTLGNGPATQLQRYPGVELVVYRRPPENTILFLSSSGQVLEERKVSPETPVSELSAGG [r13_507_JUSTAS] | -0.318 ± 0.31 | < -1
34 | SAGGSMSTTLPDGGKVTVYSDPNKPLTLVEVELPDRRLVVLRPVSAPEDGTIVAPVEVRPLEEVEEASAGGS [r16_85_JUSTAS] | -0.0108 ± 0.18 | < -1
35 | SAGGSMTVSTAPDGTLKVYDPATGKLNPLPVPPVPLVVSRSVQPDKGVVITTTTTPSGEVTVSTTALSAGGS [r16_453_JUSTAS] | 0.394 ± 0.06 | -0.159 ± 0.075
36 | SAGGSMTVVTVEARPPDSSETTVTPLTETAPDGRPRAISLEEARARLAAEPDRPVTRVTVRPEAAASAGGSA [r2_192_JUSTAS] | 0.452 ± 0.057 | 0.0975 ± 0.15
37 | SAGGSPAPVRRTVTQLLKVGDKLETRVVEEVVWVPEPPPPPVIPIPEDRGLNEEPVPGTRELTFDAGSAGGS [r8_28_JUSTAS] | 0.268 ± 0.19 | -0.195 ± 0.37
38 | SAGGSPWIEVEIPFPPGMPADELADFIAEELDENGHDVKVDDVEQDPEEGYMKFRVRDGKSVEIPWSAGGSA [r2_242_TrROS] | -0.522 ± 0.28 | -0.521 ± 0.23
39 | SAGGSSNVGEVTIEIREPVNPERFVDPEYREKAIEEMKEKAEAKAEEIKKENPNVKVTVNISLLEPGSAGGS [r8_183_JUSTAS] | 0.659 ± 0.07 | -0.00749 ± 0.36
40 | SAGGSSSVTEISISRSRQRPDASGRWVTEPVLPPGVYAPTTVVHENGVLTFNTVYDGKPVTETIPLSSAGGS [r16_500_JUSTAS] | 0.47 ± 0.13 | -0.0547 ± 0.12
41 | SAGGSSVKVVKTEVTEDPATGLTTVTETFENGAKATFTIDPATGTVPGETEYPDKKVKYTGYDPLPPSAGGS [r8_363_JUSTAS] | 0.588 ± 0.15 | -0.111 ± 0.31
42 | SAGGSTVTFSSEEEIAKLKPVLKKGNPTTLYLNEVRERLLPNGEPVLVPRDVTRTITLVNGKLTESETSAGG [r13_835_JUSTAS] | -0.685 ± 0.18 | < -1
